One assay has as its target M1 diubiquitin (UniProt P0CG48 1-76; P0CG48 1-76). Put plainly: pull-down.
Assay [1] concerns the target hRpn13 pleckstrin-like receptor for ubiquitin (Pru) domain (human, UniProt Q16186 1-150). Put plainly: ITC. For orientation: ITC needs no label: the signal is the heat of the interaction.

hRpn13 pleckstrin-like receptor for ubiquitin (Pru) domain, sequence (Q16186 1-150): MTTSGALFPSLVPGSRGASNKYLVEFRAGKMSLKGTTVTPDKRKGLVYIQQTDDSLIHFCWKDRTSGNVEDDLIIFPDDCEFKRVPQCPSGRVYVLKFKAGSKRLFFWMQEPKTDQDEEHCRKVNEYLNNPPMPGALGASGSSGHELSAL

B1: GST-hRpn13^Pru (domain or fragment, human)
chain: TTSGALFPSLVPGSRGASNKYLVEFRAGKMSLKGTTVTPDKRKGLVYIQQTDDSLIHFCWKDRTSGNVEDDLIIFPDDCEFKRVPQCPSGRVYVLKFKAGSKRLFFWMQEPKTDQDEEHCRKVNEYLNNPPMPGALGASGSSGHELSAL
In the case of B1, in the assay with M1 diubiquitin, the binding result is on record as “binds”.

B2: hPLIC2 ubiquitin-like (UBL) domain (domain or fragment, human, UniProt Q9UHD9 33-107, looked up)
chain: IKVTVKTPKEKEEFAVPENSSVQQFKEAISKRFKSQTDQLVLIFAGKILKDQDTLIQHGIHDGLTVHLVIKSQNR
Consider B2, for which, in assay [1], the affinity, expressed as Kd, was 9.3 ± 0.5 µM.

The term Kd denotes the constant that tells how readily two partners part at equilibrium.

Source of the values: article PMC4972676 (Structure (London, England : 1993), 2016).
